This data set addresses CPm (minor coat protein) (Tomato chlorosis virus, UniProt A0A088FMK1 1-669). In words: EMSA; […], room temperature 30 min; […]; binding buffer, […]. As to conditions: protein: recombinant; tags: His (pET28a); label: 5'-biotin; single strand. (A gel shift assay detects complexes by their altered migration in electrophoresis.)

The results in this text go back to article PMC10086252, “Tomato chlorosis virus CPm protein is a pathogenicity determinant and suppresses host local RNA silencing induced by single-stranded RNA”.

B1: siRGFP-guide (single-stranded GFP RNA probe) (ssRNA)
RNA: UCAACAGGAUCGAGCUUAAGG
Consider B1, for which the binding result was “no binding”.
